Test results published in paper PMC11107202, “Hypothiocyanous acid reductase is critical for host colonization and infection by Streptococcus pneumoniae” (The Journal of Biological Chemistry, 2024).

Experiments:
N#CSO = assay: purified protein; conditions: 200 μM NADH, 10 nM 6-His-tagged Har, 100 mM sodium phosphate pH 7, 25 °C, HOSCN 1-50 μM
[1] = molecular target: hypothiocyanous acid reductase (Har) (Streptococcus pneumoniae); assay: AUC; sedimentation velocity; Har at 2 uM and 20 uM in 20 mM Tris-HCl pH 8.0, 150 mM NaCl; 50,000 rpm, 20 °C; 2DSA and genetic algorithm analysis in UltraScan 4.0
Har = molecular target: T1, Har (Streptococcus pneumoniae, UniProt A0A0H2ZMK9); assay: X-ray crystal structure, […] Å; type: binding; conditions: tag-cleaved Har; 2.4 M sodium malonate pH 7.0, 20 °C
T1 construct: gene SPD_1415; full length, 438 residues; E. coli BL21(DE3), pET28a; N-terminal 6-His tag kept for kinetics, cut by HRV-3C for crystals (4-residue scar); motif CXXXXC (C43, C48), K13, K16, H425, E430

In the case of Har (Streptococcus pneumoniae D39), the Km (N#CSO) is reported as 3.8 ± 0.3 µM and the kcat (N#CSO) is reported as 440 ± 10 s⁻¹.

In the case of “hypothiocyanous acid reductase (Har) (enzyme)”, the stoichiometry N [1] is reported as 2.

`Cc1cc2nc3c(=O)[nH]c(=O)nc-3n(C[C@H](O)[C@H](O)[C@H](O)COP(=O)(O)OP(=O)(O)OC[C@H]3O[C@@H](n4cnc5c(N)ncnc54)[C@H](O)[C@@H]3O)c2cc1C` [FAD] was tested, and the “X-ray crystal structure, 1.50 Å” value (Har) was “first crystal structure of full-length Har”.
